Article PMC13070007, “TRBC2-targeting antibody–drug conjugates for the treatment of T cell cancers” (Nature cancer, 2025)
Where a chain is given by its changes, count along the chain named. Names may count otherwise.

How the values were obtained:
[1] = molecular target: T1, TRBC1 protein (recombinant) (Homo sapiens, UniProt P01850); test: SPR; Biacore T200, 25 °C; antibodies captured on protein A/G immobilised on CM5 chips; TRBC1 or TRBC2 protein as analyte, threefold dilutions from 1,000 nM to 4.1 nM, multiple-cycle kinetics; PBS-P (20 mM phosphate pH 7.4, 137 mM NaCl, 2.7 mM KCl, 0.05% P20); 1:1 kinetics binding model; conditions: both partners purified
T1 construct: T cell receptor beta constant 1 (TRBC1), recombinant protein bought from Acro Biosystems; The discussion calls it 'TRBC1 peptide'; see the vendor's data sheet for the catalogue number; also called recombinant TRBC1 protein; TRBC1 peptide; source: bought: Acro Biosystems, cat. no; TR1-H52H4

[2] = molecular target: T2, TRBC2 protein (recombinant) (Homo sapiens, UniProt A0A5B9); test: as above; conditions: both partners purified
T2 construct: T cell receptor beta constant 2 (TRBC2), recombinant protein bought from Acro Biosystems; The discussion calls it 'TRBC2 peptide'; see the vendor's data sheet for the catalogue number; also called recombinant TRBC2 protein; TRBC2 peptide; source: bought: Acro Biosystems, cat. no; TR2-H52H3

TRBC1^+ TCR on T cells = molecular target: T3, TRBC1^+ TCR on T cells (Homo sapiens, UniProt P01850); test: flow cytometry on cells; T cell cancer cell lines stained with anti-TRBC2 antibodies with a mouse IgG2a Fc, then anti-mouse IgG-Alexa Fluor-647; conditions: one partner purified
T3 construct: variable part (TRBV-TRBD-TRBJ) of the beta chain, different in each cell line or T cell; T cell receptor beta constant 1 (TRBC1) as part of the alpha-beta TCR on the cell surface; On cells the beta chain stands in the whole TCR-CD3 complex; also called TRBC1^+ cells; source: endogenous on wild-type Jurkat and H9 cells; normal human T cells from PBMCs

B1: YR3-A5 anti-TRBC2 antibody (antibody, V domains shown)
VH: QVQLVQSGAEVKKPGASVKVSCKASPRGFHGYHMHWVRQAPGQGLEWMGFINPYNDDIQSNERFRGRVTMTSDKSTTTAYMELSSLRSEDTAVYYCARGNGKWGDGAYRFFDFWGQGTLVTVSS
VL: DVVMTQSPLSLPVTPGEPASISCRSSQNLVHSNGRTYLQWYLQKPGQSPQLLIYRVSNRFPGVPDRFSGSGSGTDFTLKISRVEAEDVGVYFCSQSTHVPYTFGGGTKVEIK
notes: also called parent; source: transient transfection of CHO cells (ExpiCHO or CHO-S), purified (HisTrap column or Protein A magnetic beads; SEC); copies: 2 + 2
Question: Which results are given for B1?
Answer: binding result [1]: no binding; Kd [2]: 23 nM

B2: JX1.1 anti-TRBC2 antibody (antibody, V domains shown)
VH: B1 VH with R27Y
VL: B1 VL with V30K, S32R
notes: human VH; murine IgG2a Fc region; human VL; Human variable light and heavy chains fused to a murine IgG2a Fc region; also called clone V30K, S32R, R27Y; source: ExpiCHO or CHO-S cells, purified (HisTrap column or Protein A magnetic beads; SEC); copies: 2 + 2
Question: Does B2 bind [1]?
Answer: Result: no binding

Question: And the Kd [2]?
Answer: The Kd was 10 nM.

Question: What about the koff [2] of the same binder?
Answer: Its koff is 0.0013 s⁻¹.

Question: Does B2 bind (TRBC1^+ TCR on T cells)?
Answer: Result: no binding
